From patent publication US20040258695A1, “Transferrin binding peptides and uses thereof” (priority 2003, published 2004) come the findings set out here.

The labels stand for the following.
B1: N. meningitidis TbpB peptide PSRQLPASGKVIYKG (peptide)
peptide: PSRQLPASGKVIYKG
notes: library peptide
B2: N. meningitidis TbpB peptide FYKHAASEKDFSNKK (peptide)
peptide: FYKHAASEKDFSNKK
notes: library peptide
B3: N. meningitidis TbpB peptide VIYKGVWHFVTDTKK (peptide)
peptide: VIYKGVWHFVTDTKK
notes: library peptide

The target of this assay is T1, human transferrin (hTf), iron loaded (human, UniProt P02787 20-698).
T1 construct: Used as a labelled probe (beta-gal conjugate for library 1, HRP conjugate for library 2 and the solid-phase assay); also called β-gal-hTf; HRP conjugated hTf
T1 sequence (P02787 20-698 limits assumed): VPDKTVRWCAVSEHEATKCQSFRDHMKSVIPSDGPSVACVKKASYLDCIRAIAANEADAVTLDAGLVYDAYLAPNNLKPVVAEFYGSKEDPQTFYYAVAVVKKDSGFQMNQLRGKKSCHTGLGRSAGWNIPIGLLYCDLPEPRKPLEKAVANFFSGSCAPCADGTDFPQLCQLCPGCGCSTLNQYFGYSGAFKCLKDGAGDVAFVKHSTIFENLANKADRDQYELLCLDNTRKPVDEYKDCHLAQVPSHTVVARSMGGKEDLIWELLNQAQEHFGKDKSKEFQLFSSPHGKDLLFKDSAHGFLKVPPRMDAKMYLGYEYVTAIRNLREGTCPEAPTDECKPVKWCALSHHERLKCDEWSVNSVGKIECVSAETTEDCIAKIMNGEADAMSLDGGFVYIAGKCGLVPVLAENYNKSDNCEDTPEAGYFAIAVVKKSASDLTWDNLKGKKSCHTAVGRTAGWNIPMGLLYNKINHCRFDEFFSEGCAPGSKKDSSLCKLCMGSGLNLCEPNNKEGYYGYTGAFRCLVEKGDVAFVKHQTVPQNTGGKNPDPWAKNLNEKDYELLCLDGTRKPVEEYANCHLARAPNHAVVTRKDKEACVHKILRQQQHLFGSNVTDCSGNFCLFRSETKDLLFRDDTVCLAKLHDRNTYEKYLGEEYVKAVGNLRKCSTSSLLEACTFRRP
Kind of assay: TbpB overlapping peptide library probed with labelled hTf as in Example 1.
Turning to B1, the binding result is listed as “binds”.

Take B2: the binding result is listed as “binds”. Next, B3: “binds”.
